Here are results for one molecule from publication PMC10942606.

Holding throughout (test): MST
One series has as its target T1, Pcf1 WT;Pcf2;Pcf3 (Schizosaccharomyces …, UniProt Q1MTN9;O13985;Q9Y825 1-544;1-512;1-408, ||).
T1 sequence 1: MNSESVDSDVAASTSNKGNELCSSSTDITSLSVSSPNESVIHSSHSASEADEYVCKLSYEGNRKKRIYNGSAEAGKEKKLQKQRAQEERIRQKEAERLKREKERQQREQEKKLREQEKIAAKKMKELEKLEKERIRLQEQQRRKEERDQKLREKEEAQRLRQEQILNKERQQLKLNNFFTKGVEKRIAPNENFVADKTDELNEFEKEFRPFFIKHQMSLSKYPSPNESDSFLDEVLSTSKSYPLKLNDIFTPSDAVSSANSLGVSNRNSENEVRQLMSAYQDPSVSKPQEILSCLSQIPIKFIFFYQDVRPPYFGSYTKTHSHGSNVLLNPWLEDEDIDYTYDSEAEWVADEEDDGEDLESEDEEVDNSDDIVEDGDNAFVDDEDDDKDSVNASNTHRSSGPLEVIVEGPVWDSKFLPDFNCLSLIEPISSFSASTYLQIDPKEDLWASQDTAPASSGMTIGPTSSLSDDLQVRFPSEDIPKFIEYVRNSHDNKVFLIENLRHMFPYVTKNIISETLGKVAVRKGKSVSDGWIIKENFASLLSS
T1 sequence 2: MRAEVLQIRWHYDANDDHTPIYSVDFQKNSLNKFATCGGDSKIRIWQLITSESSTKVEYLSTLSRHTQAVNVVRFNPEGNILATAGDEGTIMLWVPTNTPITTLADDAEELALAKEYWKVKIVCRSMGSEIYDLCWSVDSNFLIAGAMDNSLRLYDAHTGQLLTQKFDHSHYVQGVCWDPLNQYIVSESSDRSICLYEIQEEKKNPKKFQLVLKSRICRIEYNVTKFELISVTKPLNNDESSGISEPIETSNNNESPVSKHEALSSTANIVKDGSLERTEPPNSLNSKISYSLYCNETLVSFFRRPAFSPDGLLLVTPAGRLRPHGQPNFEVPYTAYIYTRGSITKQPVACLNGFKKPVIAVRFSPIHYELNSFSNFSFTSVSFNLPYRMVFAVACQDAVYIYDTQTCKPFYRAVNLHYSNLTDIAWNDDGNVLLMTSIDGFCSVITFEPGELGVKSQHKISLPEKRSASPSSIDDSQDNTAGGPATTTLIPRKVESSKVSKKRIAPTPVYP
T1 sequence 3: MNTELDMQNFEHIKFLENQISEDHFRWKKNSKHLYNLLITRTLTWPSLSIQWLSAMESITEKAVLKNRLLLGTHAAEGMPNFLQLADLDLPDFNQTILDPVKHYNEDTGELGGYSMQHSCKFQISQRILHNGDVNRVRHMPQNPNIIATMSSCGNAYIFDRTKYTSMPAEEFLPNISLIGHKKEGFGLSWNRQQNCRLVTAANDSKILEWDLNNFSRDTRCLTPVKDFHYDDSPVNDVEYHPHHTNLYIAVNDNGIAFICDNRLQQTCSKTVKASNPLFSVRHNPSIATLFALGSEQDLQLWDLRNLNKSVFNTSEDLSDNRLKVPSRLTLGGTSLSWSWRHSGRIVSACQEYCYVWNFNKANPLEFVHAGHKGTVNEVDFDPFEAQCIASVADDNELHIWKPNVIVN

The next series has as its target T2, Pcf1_KER-PIP (Schizosaccharomyces pombe, UniProt Q1MTN9 56-185).
T2 sequence: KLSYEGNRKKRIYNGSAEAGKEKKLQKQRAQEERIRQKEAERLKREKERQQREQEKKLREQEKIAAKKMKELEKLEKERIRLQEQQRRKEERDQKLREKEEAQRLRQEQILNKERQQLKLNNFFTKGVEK

The target in the next series is T3, Pcf1-PIP*;Pcf2;Pcf3 (Schizosaccharomyces …, UniProt Q1MTN9;O13985;Q9Y825 1-544;1-512;1-408, Q172A;L175A;F178A;F179A||).
T3 sequence 1: T1 sequence 1 with Q172A, L175A, F178A, F179A
T3 sequence 2: T1 sequence 2
T3 sequence 3: T1 sequence 3

In the next series the target is T4, Pcf1_KER* (Schizosaccharomyces pombe, UniProt Q1MTN9 56-170, R147E;K150E;K154E;R161E;K168E).
T4 sequence: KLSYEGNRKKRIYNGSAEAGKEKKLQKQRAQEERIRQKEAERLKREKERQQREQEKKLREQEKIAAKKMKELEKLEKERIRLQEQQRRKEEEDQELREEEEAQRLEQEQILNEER

Where a chain is given by its changes, count along the chain named.

B1: 40 bp dsDNA, Alexa488 (dsDNA)
DNA 1: ATCAATATCCACCTGCAGATACTACCAAAAGTGTATTTGG
DNA 2: CCAAATACACTTTTGGTAGTATCTGCAGGTGGATATTGAT
On to B1, for which the “apparent K (half saturation)” value with Pcf1 WT;Pcf2;Pcf3 is 700 ± 100 nM; in the series with Pcf1_KER-PIP, 1900 ± 300 nM; in the series with Pcf1-PIP*;Pcf2;Pcf3, 700 ± 100 nM; in the series with Pcf1_KER*, 12.2 ± 0.7 µM.
